In paper PMC8784325, “The ubiquitin-binding domain of DNA polymerase η directly binds to DNA clamp PCNA and regulates translesion DNA synthesis” (The Journal of Biological Chemistry, 2021):

Experiments:
[1] = tested on: rad30Δ S. cerevisiae strain; assay: UV sensitivity complementation (spot assay), rad30Δ strain; type: cell-based, Saccharomyces cerevisiae; details: ADH1 promoter, UV 16–32 J/m^2, 30 °C, 3 days
Description: Figure 1 Identification of PCNA interaction region in CaPolη.A, amino acid alignment between Ca- and Sc-Polη was carried out by EMBOSS Needle; identical amino acids are marked by ∗ and similar amino acids were marked by: symbols. All the important motifs and domains are underlined, including Motif I to V, PAD, ubz and pip. Putative pip sequences were labeled as Seq-1 through Seq-4 in the C-terminal domain. […] C, putative pip sequences of CaPolη were compared with the already identified pip motifs of other Y-family pols. D, line diagram showing various domains of Polηs and a C-terminal deletant CaPolη (1–512). E, determination of binding kinetics of wild type or truncated CaPolƞ (1–512) with CaPCNA by ITC. […] F, UV sensitivities of S. cerevisiae strains. Cells of genomic rad30Δ and rad30Δrev3Δ deletion S. cerevisiae strains harboring YEP-ADH1p or YEP-ADH1p-ScPolη or YEP-ADH1p-CaPolη or YEP-ADH1p-CaPolη (1–512) or YEP-ADH1p-CaPolη F485A,L486A plasmids from an overnight SD-Ura culture were serially diluted and spotted onto SD-Ura plates. […]
Figure 2 Ubz domain of CaPolη is essential TLS activity.A, a line diagram showing the deletion and site-directed mutations in the ubz domain of CaPolη. […] Following UV irradiation, plates were incubated in the dark, and colonies were counted after 3 to 5 days. […]

[2] = tested on: rad30Δ S. cerevisiae strain; details: S. cerevisiae strains; cited from earlier work

B1: ScPolη F627A,F628A (protein, UniProt Q04049 1-632, looked up, variant F627A F628A)
DNA polymerase eta: MSKFTWKELIQLGSPSKAYESSLACIAHIDMNAFFAQVEQMRCGLSKEDPVVCVQWNSIIAVSYAARKYGISRMDTIQEALKKCSNLIPIHTAVFKKGEDFWQYHDGCGSWVQDPAKQISVEDHKVSLEPYRRESRKALKIFKSACDLVERASIDEVFLDLGRICFNMLMFDNEYELTGDLKLKDALSNIREAFIGGNYDINSHLPLIPEKIKSLKFEGDVFNPEGRDLITDWDDVILALGSQVCKGIRDSIKDILGYTTSCGLSSTKNVCKLASNYKKPDAQTIVKNDCLLDFLDCGKFEITSFWTLGGVLGKELIDVLDLPHENSIKHIRETWPDNAGQLKEFLDAKVKQSDYDRSTSNIDPLKTADLAEKLFKLSRGRYGLPLSSRPVVKSMMSNKNLRGKSCNSIVDCISWLEVFCAELTSRIQDLEQEYNKIVIPRTVSISLKTKSYEVYRKSGPVAYKGINFQSHELLKVGIKFVTDLDIKGKNKSYYPLTKLSMTITNFDIIDLQKTVVDMFGNQVHTFKSSAGKEDEEKTTSSKADEKTPKLECCKYQVTFTDQKALQEHADYHLALKLSEGLNGAEESSKNLSFGEKRLLFSRKRPNSQHTATPQKKQVTSSKNILSAATRKK
- UV sensitivity / complementation (in words) [1]: abrogated its TLS function and displayed equal UV sensitivity with rad30Δ strain
- UV sensitivity and UV-induced mutagenesis (in words) [2]: enhanced UV sensitivity and UV-induced mutagenesis
